5 molecules from patent US20230203146A1 (Boehringer Ingelheim, published 2023) can be followed below.

Changes are numbered by the printed parent chain. Like-named read-outs stand apart in the source and are kept apart here.

In assay [1] the target is T1, N-terminally FLAG-tagged mouse Ang2 (HEK293T conditioned medium) (mouse, UniProt O35608 19-496).
T1 construct: may be a nucleotide entry; also called mAng2; FLAG-mAng2
T1 sequence: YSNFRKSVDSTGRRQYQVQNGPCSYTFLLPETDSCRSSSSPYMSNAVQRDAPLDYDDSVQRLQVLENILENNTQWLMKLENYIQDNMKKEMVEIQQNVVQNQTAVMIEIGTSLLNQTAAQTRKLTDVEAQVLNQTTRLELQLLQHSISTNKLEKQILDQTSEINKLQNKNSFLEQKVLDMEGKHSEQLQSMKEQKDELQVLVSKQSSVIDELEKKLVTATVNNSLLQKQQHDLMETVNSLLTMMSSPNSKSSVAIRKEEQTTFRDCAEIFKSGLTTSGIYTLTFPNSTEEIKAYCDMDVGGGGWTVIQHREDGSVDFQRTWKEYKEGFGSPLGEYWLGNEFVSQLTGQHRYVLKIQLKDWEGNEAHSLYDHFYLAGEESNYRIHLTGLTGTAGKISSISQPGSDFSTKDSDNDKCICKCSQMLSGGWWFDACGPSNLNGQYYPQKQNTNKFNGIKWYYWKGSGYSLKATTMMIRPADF
Nature of the assay: competition ELISA, FLAG-mAng2 on coated mTie2-Fc. The protocol: (§1) In brief, 2 μg/mL of recombinant mouse Tie2-Fc or cyno Tie2-Fc is coated overnight at 4° C. in a 96-well MaxiSorp plate (Nunc, Wiesbaden, Germany). Coated wells are blocked with a 1% casein solution.
On the technique in general: An ELISA detects its analyte on a solid surface through an enzyme-linked reagent.

The target in assay [2] is T2, N-terminally FLAG-tagged cynomolgus Ang2 (HEK293T conditioned medium) (cynomolgus, UniProt O15123 19-496 (human entry), limits assumed).
T2 construct: may be a nucleotide entry; also called cAng2; FLAG-cAng2
T2 chain: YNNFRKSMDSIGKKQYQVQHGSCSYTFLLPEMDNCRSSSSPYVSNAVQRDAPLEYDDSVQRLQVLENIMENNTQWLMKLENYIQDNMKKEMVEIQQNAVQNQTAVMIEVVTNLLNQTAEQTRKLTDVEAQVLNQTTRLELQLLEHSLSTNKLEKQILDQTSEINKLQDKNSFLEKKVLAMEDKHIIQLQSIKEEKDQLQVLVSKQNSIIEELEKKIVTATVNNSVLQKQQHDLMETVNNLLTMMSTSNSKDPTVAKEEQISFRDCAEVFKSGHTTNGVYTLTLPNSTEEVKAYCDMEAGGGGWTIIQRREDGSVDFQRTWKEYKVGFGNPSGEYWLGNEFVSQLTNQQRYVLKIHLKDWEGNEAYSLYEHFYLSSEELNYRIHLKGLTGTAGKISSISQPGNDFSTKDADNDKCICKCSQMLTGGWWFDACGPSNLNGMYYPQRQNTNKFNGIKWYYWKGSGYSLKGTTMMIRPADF
Nature of the assay: competition ELISA, FLAG-cAng2 on coated cTie2-Fc. As for the experimental part: as §1

For assay [3], the target named is T1, N-terminally FLAG-tagged mouse Ang2 …. The experiment in a line: competition ELISA, FLAG-mAng2 on coated mTie2-Fc. As for the experimental part:
as §1
The source holds these as a separate data set.

Assay [4] has as its target T3, recombinant cynomolgus Ang2-FLD (cynomolgus).
T3 construct: domain: FLD; also called cyno Ang2-FLD
The experiment in a line: SPR (Biacore T100), binder on CM5 chip, Ang2-FLD as analyte. As for the experimental part: (§2) In brief, VHH and benchmark compounds are immobilized on a CM5 chip via amine coupling. […] Ang2-FLD species are allowed to associate for 2 min and to dissociate for 20 min at a flow rate of 45 μL/min. In between injections, the surfaces are regenerated with a 10 sec pulse of 25 mM NaOH and 60 sec stabilization period. Association/dissociation data are evaluated by fitting a 1:1 interaction model (Langmuir binding). The affinity constant KD is calculated from resulting association and dissociation rate constants kₐ and kd and are depicted in Table 8.
For orientation: SPR reads the build-up and loss of mass on a sensor chip optically.

Assay [5] addresses T4, recombinant human Ang2-FLD (human, UniProt O15123 275-496, limits assumed).
T4 construct: domain: FLD; not used
T4 sequence (looked up): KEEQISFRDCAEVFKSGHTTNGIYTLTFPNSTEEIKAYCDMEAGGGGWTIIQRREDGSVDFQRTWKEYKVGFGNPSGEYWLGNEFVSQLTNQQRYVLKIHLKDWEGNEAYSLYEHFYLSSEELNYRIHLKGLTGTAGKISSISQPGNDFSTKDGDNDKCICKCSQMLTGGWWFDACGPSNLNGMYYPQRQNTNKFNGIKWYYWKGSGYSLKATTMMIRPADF
The description is as above. The protocol: as §2

In assay [6] the target is T5, recombinant mouse Ang2-FLD (mouse, UniProt O35608 275-496, limits assumed).
T5 construct: domain: FLD
T5 sequence (looked up): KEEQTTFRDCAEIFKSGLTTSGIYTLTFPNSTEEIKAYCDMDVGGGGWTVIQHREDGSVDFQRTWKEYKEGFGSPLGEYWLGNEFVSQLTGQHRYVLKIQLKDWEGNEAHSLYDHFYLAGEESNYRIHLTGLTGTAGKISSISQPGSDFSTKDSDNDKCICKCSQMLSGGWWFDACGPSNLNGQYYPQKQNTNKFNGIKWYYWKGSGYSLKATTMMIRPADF
The description is as above. As for the experimental part: as §2

For assay [7], the target named is T6, FLAG-tagged recombinant human Ang1 (Alexis Biochemicals) (human, UniProt Q15389 20-498, limits assumed).
T6 construct: Bought reagent; also called hAng1; FLAG-hAng1
T6 sequence (looked up): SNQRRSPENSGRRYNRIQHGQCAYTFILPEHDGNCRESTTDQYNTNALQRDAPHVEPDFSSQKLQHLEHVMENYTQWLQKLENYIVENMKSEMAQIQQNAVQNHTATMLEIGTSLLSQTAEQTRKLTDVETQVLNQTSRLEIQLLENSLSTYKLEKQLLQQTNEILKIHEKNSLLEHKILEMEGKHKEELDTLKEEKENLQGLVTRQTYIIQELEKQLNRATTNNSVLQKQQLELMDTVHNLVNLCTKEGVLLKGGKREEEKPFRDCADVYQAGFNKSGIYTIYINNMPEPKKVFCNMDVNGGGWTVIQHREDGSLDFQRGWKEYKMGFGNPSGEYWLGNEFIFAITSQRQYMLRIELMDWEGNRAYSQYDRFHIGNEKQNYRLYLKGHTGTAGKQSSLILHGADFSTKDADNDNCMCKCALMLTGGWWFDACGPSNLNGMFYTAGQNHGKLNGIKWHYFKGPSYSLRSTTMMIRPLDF
Nature of the assay: ratio of IC50 in hAng1/hTie2 ELISA to IC50 in hAng2/hTie2 ELISA. As for the experimental part: In brief, 2 μg/mL of Tie2/Fc chimera (R&D Systems, Minneapolis, Minn., USA) is coated in a 96-well MaxiSorp plate (Nunc, Wiesbaden, Germany).
In brief, 2 μg/mL of recombinant human Tie2-Fc (R&D Systems, Minneapolis, Minn., USA) is coated overnight at 4° C. in a 96-well MaxiSorp plate (Nunc, Wiesbaden, Germany). Coated wells are blocked with a 1% casein solution.

The target of assay [8] is T7, recombinant mouse Ang2-FLD (mouse, UniProt O35608 275-496, limits assumed).
T7 construct: domain: FLD
T7 sequence (looked up): T5 sequence (looked up)
The experiment in a line: SPR (Biacore T100), VHH immobilized, Ang2-FLD injected. As for the experimental part: as §2

The target in assay [9] is T8, recombinant rat Ang2-FLD (rat, UniProt O35462 275-496, limits assumed).
T8 construct: domain: FLD
T8 sequence (looked up): T5 sequence (looked up) with Q4K, I35V, V43M, G91S, Q92G, N107S, D114E, A119S, S168T
Described as above. The protocol:
as §2

Assay [10] deals with T9, recombinant human Ang2-FLD (human, UniProt O15123 275-496, limits assumed).
T9 construct: domain: FLD
T9 sequence (looked up): T4 sequence (looked up)
The assay is described as above. The protocol:
as §2

For assay [11], the target named is T10, recombinant cynomolgus Ang2-FLD (cynomolgus, UniProt A0A2K5VNX6 275-496).
T10 construct: domain: FLD; also called cyno Ang2-FLD
T10 sequence: T4 sequence (looked up) with E2G, I23V, F28L, I35V, G154A, A212G, D221G
Described as above. The protocol:
as §2

Assay [12] addresses T11, FLAG-tagged mouse Ang2 (mouse, UniProt O35608 19-496).
T11 construct: N-terminally FLAG-tagged, conditioned medium of HEK293T cells; also called mAng2; FLAG-mAng2
T11 sequence: T1 sequence
The experiment in a line: competition ELISA: FLAG-mAng2 binding to coated mTie2-Fc. As for the experimental part: as §1

Assay [13] addresses T12, FLAG-tagged cynomolgus Ang2 (cynomolgus, UniProt O15123 19-496 (human entry), limits assumed).
T12 construct: N-terminally FLAG-tagged, conditioned medium of HEK293T cells; also called cAng2; FLAG-cAng2
T12 chain: T2 chain
Nature of the assay: competition ELISA: FLAG-cAng2 binding to coated cTie2-Fc. As for the experimental part: as §1

B1: VHH 1D01 (VHH)
VHH: EVQLVESGGGLVQAGGSLRLSCAASGFTFDDYALGWFRQAAGKEREGVSCIRCSDGSTYYADSVKGRFTISSDNAKNTVYLQMNSLKPEDTAVYYCAASIVPRSKLEPYEYDAWGQGTQVTVSS
notes: also called 001D01; not shown: C-terminal c-myc tag and His6 tag
As a reminder, the IC50 is the concentration that gives 50% inhibition. Lower therefore signals inhibition by little substance. The term Kd denotes the equilibrium constant for the complex coming apart. The koff is a measure of how fast the partners let go of each other. Broadly, the kon is the rate constant with which the complex forms. Consider B1, for which the values for the IC50 in [1], in assay [2] and in [3] were 6.3 nM, 16.4 nM and 10 nM, respectively. Also, the Kd in assay [4] worked out at 1.4 nM; in assay [5], 2 nM; in assay [6], 4.6 nM. For the same molecule, the values for the koff in [4], in assay [5] and in [6] were 0.014 s⁻¹, 0.015 s⁻¹ and 0.015 s⁻¹, respectively. The on-rate (kon) is 9.9e+06 M⁻¹ s⁻¹ in [4], 7.7e+06 M⁻¹ s⁻¹ in [5] and 3.3e+06 M⁻¹ s⁻¹ in assay [6]. Further, the hAng1/hAng2 ratio in assay [7] is > 10800.

B2: VHH 00921 (VHH, not shown: small tags and cut ends)
VHH: B1 VHH with A14P, A41P, D55G, A75S, K87R, Q119L
In the case of B2, the Kd in assay [8] came to 7.5 nM; in assay [9], 42 nM; in assay [10], 6.6 nM; in assay [11] it was 2.3 nM. The dissociation rate constant (koff) was 0.025 s⁻¹ in assay [8], 0.049 s⁻¹ in assay [9], 0.027 s⁻¹ in [10] and 0.025 s⁻¹ in assay [11]. Further, the on-rate constant (kon) in assay [8] is 3.3e+06 M⁻¹ s⁻¹; in [9] it was 1.2e+06 M⁻¹ s⁻¹; in assay [10], 4e+06 M⁻¹ s⁻¹; in [11] it was 1.1e+07 M⁻¹ s⁻¹. The IC50 in [12] came to 27 nM; in [13], 37 nM.

B3: VHH 7G08 (VHH)
VHH: EVQLVESGGGLVQPGGSLRLSCAASGFALDYYAIGWFRQVPGKEREGVSCISSSDGITYYVDSVKGRFTISRDNAKNTVYLQMNSLKPEDTAVYYCATDSGGYIDYDCMGLGYDYWGQGTQVTVSS
notes: also called 007G08; not shown: C-terminal c-myc tag and His6 tag
Consider B3, for which the IC50 in assay [1] stood at 0.09 nM; in assay [2], 0.14 nM; in assay [3], 0.07 nM. Moreover, the figures for the Kd in [4], in assay [5] and in assay [6] were 0.072 nM, 0.097 nM and 0.18 nM, respectively. Moreover, the results for the koff in [4], in assay [5] and in assay [6] were 0.00011 s⁻¹, 0.0001 s⁻¹ and 0.00014 s⁻¹, respectively. Besides, the values for the kon in assay [4], in assay [5] and in [6] were 1.5e+06 M⁻¹ s⁻¹, 1e+06 M⁻¹ s⁻¹ and 810000 M⁻¹ s⁻¹, respectively. Besides, the hAng1/hAng2 ratio in assay [7] was > 2.33e+06.

B4: VHH 37A09 (VHH)
VHH: B3 VHH with V5M, E89G
notes: also called 037A09; not shown: C-terminal c-myc tag and His6 tag
In the case of B4, the half-inhibitory concentration (IC50) in [2] came out at 0.2 nM; in assay [3] it was 0.1 nM. The hAng1/hAng2 ratio in assay [7] was > 100000.

B5: VHH 37F02 (VHH)
VHH: B3 VHH with V40A
notes: also called 037F02; not shown: C-terminal c-myc tag and His6 tag
As for B5, the 50% inhibitory concentration (IC50) stood at 0.1 nM in assay [2] and 0.09 nM in [3]. In addition, the hAng1/hAng2 ratio in assay [7] is > 100000.
